# Data reported in US11214595B2, “BK channel-modulating peptides and their use” (UNIVERSITY OF SOUTH FLORIDA, priority 2016, dated 2022).
# Positions of bridges follow the written chain, without caps; N, C: chain ends. Residues, ends and D or L forms follow the SMILES beside them.
# Tests used:
# [1] = Blood-brain barrier crossing after application to the dural surface of the auditory midbrain; details: mouse, in vivo
# Method: The peptide can shuttle both itself and small molecule cargo across the blood-brain barrier of the mammalian brain. […] High dose application supports these peptides' use for suppressing audiogenic seizures, while the lower dose supports these peptides' use for reducing the effects of age-related hearing loss.
# When this compound was applied to the dura, fluorescence could be seen at ˜1200 microns in depth after 8 hours.
# [2] = system: smooth muscle; assay: Ex vivo preparations of bladder
# [3] = biological target: T1, human BKα channel (ZERO isoform) (Homo sapiens, UniProt Q12791); assay: Patch-clamp recordings of human BKα channels (ZERO isoform) expressed in HEK293 cells, inside-out patches; assay type: cell-based
# T1 construct: expressed in transfected cells; host or cells: HEK293
# Method: FIGS. 6A-6H. LS3 alters the gating of human BK channels. Human BKα channels (ZERO isoform) expressed in HEK293 cells were recorded in inside-out patches. Peptide was applied by diffusion to the extracellular side. Intracellular calcium held at 750 nM. […] FIGS. 6C-6E, Bar graphs displaying the post-peptide Po relative to the starting Po across LS3 concentrations. […] FIG. 6F-6H, Bar graphs displaying the post-peptide Po relative to the starting Po for either 500 nM LS3 (cyclic) or 500 nM of the reduced form of LS3 (linear).
# FIGS. 7A-7C. LS3 alters open and closed dwell times of the human BK channel. Single human BKα channels (ZERO isoform) expressed in HEK293 cells were recorded in inside-out patches. Intracellular calcium held at 750 nM. FIGS. 7A-7C, Bar graphs showing one example of changes in open and closed dwell times before (red) and after (black) 500 nM LS3 (100 mV). Channel open dwell times shortened (FIG. 7A).
# FIGS. 11A-11C. The 9-amino acid peptides with an N- and C-terminal disulfide bond express motifs that were highly enriched in a screen for BK channel targeted peptides (FIG. 11A). […] 60 mV shown. N=6-12. Dotted line indicates baseline (FIGS. 11B and 11C).
# FIGS. 13A-1, 13A-2, 13B, 13C-1, 13C-2, 13D-1, and 13D-2. […] Single human BKα (ZERO isoform) channels expressed in HEK293 cells were recorded in inside-out patches before and after 500 nM LS10. Intracellular calcium held at 750 nM. FIGS. 13A-1 and 13A-2: open dwell times before (FIG. 13A-1) and after (FIG. 13A-2) LS10 for a representative recording at 100 mV. Single exponential fit, red line. FIG. 13B: the mean change in peak open dwell times in response to LS10. Paired Student's t-tests compared the pre- and post-peptide peak open durations, *p<0.05, N=5-6). FIGS. 13C-1 and 13C-2: closed dwell times before (FIG. 13C-1) and after (FIG. 13C-2) LS10 for a representative recording at 100 mV. […] Three component exponential fits (gray dotted-lines) and summation (red lines) also indicated. FIGS. 13D-1 and 13D-2: the mean change in peak short (FIG. 13D-1) and long (FIG. 13D-2) duration closed dwell times in response to LS10. Paired Student's t-tests compared the pre- and post-peptide peak open durations, *p<0.05, N=6.
# (§1) HEK293 cells (ATCC, Manassas, Va.) were grown according to standard procedures. Cells were cultured at 37° C. in a 5% CO2 atmosphere in Dulbecco's modified Eagle's medium with 1-glutamine, sodium pyruvate and 10% fetal bovine serum (Invitrogen). Cell lines were split with trypsin/EDTA in Hanks' balanced salt solution (Invitrogen) up to 25-30 cycles. For phage display, stable lines stably expressed rSK2 or hBKα ZERO isoform. Cells were transfected (Lipofectamine 2000, Invitrogen) with hGlyRα1 and used 48 hours later. For electrophysiological recordings, cells were transfected with the hBKα ZERO or STREX isoform. Enhanced green fluorescent protein (EGFP) was cotransfected as a marker. Electrophysiological recordings were made 16-72 h after transfection. Although the profile of BK channel composition varies from tissue to tissue, the ZERO BK channel splice variant is widely expressed, particularly in the nervous system, serving as a representative form for studying the modulation of BK channel gating.
# Voltage-clamp recordings were performed at room temperature (22-24° C.) using an inside-out configuration on patches pulled from HEK293 cells. The extracellular solution contained the following (in mM): 2 KCl, 136 KOH, 20 Hepes, 2 MgCl2, adjusted to pH 7.2 with MeSO3H. In order to apply peptide to the extracellular surface, patch electrodes (7-20 MΩ in resistance) were tip filled with normal extracellular solution and backfilled with extracellular solution containing LS3. Enough normal extracellular solution was included to provide at least five minutes of peptide-free recording (determined by plotting Po vs. time). The intracellular solution (in the bath) contained the following (in mM): 6 KCl, 132 KOH, 20 Hepes, adjusted to pH 7.2 with MeSO3H. […]
# [4] = system: inferior colliculus neurons; details: topical 1 μL of 10 μM stock on surface of IC, 5 hours post-application, N=5 mice
# [5] = biological target: T2, human BKα channel (STREX isoform) (Homo sapiens, UniProt Q12791); assay: Patch-clamp recordings of human BKα channels (STREX isoform) expressed in HEK293 cells, inside-out patches; assay type: cell-based; details: 500 nM, 100 mV, intracellular calcium 750 nM
# T2 construct: expressed in transfected cells; host or cells: HEK293
# Method: (§2) FIGS. 12A, 12B-1, 12B-2, 12C, 12D, and 12E. […] FIGS. 12B-1 and 12B-2: representative three second traces at 100 mV before and after LS10 (500 nM). […] BKα channels expressed in HEK293 cells were recorded in inside-out patches. Intracellular calcium held at 750 nM. […] SLO-1 channels expressed in oocytes cells were recorded in inside-out patches. Intracellular calcium held at 5 μM.
# as §1, with “Electrophysiological recordings were made 16-72 h after transfection. Although the profile of BK channel composition varies from tissue to tissue, the ZERO BK channel splice variant is widely expressed, particularly in the nervous system, serving as a representative form for studying the modulation of BK channel gating.” left out
# Voltage-clamp recordings were performed at room temperature (22-24° C.) using an inside-out configuration on patches pulled from HEK293 cells. […] Enough normal extracellular solution was included to provide at least five minutes of peptide-free recording (determined by plotting Po vs. time). […]
# [6] = biological target: T3, worm BK channel (SLO-1) (Caenorhabditis elegans, UniProt Q95V25); assay: Inside-out patch recordings of SLO-1 channels expressed in oocytes; assay type: cell-based, C. elegans; details: 100 mV, intracellular calcium 5 μM
# T3 construct: expressed in transfected cells
# Method: as §2
# FIGS. 14A-1, 14A-2, and 14B. LS10 prevents the potentiation of BK channels by acute ethanol exposure. SLO-1 channels expressed in oocytes cells were recorded in inside-out patches before. Intracellular calcium held at 5 μM. FIGS. 14A-1 and 14A-2: representative three second traces at 100 mV before (upper traces) and after (lower traces) bath application of 50 mM ethanol. […] FIG. 14B: mean Po change in response to ethanol for control recordings (open bars) and in the presence of LS10 (shaded bars). Paired Student's t-tests compared the Po before and after ethanol, *p<0.05, N=5.
# T1 sequence (Q12791 1-1178 isoform Q12791-5): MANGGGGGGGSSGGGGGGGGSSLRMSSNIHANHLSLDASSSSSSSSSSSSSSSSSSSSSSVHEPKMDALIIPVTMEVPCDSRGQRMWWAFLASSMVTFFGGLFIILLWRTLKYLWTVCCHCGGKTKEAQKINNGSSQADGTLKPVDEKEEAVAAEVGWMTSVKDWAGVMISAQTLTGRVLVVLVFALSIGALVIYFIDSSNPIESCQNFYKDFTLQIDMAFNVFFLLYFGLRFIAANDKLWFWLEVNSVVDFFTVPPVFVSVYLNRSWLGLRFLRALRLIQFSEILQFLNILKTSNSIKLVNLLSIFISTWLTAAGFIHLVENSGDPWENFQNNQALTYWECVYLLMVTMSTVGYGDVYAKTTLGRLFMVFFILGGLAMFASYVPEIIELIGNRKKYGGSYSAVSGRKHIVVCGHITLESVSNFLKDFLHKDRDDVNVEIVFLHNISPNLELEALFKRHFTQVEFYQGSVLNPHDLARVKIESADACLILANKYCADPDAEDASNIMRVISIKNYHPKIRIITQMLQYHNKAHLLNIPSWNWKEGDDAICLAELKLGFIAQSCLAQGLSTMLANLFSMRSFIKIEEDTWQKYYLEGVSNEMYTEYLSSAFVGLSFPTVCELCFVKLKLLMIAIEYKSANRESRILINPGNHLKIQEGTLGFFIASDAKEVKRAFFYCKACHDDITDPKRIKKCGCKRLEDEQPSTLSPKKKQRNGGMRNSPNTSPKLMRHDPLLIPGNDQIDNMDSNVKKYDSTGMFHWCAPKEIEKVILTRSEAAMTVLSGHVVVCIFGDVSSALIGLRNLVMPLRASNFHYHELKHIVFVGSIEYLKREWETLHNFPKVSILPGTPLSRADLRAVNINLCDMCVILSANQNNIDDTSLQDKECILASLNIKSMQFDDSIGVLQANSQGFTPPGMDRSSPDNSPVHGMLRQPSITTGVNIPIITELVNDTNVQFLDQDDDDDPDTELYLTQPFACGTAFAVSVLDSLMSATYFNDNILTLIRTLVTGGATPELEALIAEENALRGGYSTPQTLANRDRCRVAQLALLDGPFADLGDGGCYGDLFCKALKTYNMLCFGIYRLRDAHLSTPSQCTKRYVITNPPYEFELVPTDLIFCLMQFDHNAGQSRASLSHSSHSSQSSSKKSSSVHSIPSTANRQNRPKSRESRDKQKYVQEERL
# T3 sequence (Q95V25 whole entry): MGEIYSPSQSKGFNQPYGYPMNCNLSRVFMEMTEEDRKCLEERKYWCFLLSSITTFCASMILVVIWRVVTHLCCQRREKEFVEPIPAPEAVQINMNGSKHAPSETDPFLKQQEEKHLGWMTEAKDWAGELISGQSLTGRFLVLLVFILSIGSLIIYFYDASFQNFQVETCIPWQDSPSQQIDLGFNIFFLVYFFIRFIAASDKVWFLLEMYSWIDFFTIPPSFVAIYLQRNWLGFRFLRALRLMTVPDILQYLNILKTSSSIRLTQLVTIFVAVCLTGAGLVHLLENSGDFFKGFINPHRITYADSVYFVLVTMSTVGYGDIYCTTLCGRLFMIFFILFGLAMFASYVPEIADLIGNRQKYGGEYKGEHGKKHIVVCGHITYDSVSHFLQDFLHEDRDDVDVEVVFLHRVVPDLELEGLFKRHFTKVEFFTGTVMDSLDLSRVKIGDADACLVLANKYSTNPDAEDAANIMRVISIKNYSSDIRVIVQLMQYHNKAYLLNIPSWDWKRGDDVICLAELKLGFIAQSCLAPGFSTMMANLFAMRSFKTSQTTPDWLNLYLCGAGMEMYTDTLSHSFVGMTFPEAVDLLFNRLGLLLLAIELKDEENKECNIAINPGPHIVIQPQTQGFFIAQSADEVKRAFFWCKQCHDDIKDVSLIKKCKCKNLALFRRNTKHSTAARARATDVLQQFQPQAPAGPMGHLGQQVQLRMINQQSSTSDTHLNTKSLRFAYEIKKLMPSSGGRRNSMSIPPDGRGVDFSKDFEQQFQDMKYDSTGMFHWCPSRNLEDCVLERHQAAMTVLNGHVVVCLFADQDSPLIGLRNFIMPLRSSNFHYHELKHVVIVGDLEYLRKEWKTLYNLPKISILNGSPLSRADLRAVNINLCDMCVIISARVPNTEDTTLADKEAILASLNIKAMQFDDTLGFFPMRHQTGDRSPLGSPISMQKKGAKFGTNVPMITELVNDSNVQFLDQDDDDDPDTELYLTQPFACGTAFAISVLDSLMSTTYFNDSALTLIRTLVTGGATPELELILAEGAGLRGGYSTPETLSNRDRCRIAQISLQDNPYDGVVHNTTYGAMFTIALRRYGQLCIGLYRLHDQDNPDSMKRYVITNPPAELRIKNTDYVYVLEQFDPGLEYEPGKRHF
# T2 sequence (Q12791 whole entry, canonical isoform): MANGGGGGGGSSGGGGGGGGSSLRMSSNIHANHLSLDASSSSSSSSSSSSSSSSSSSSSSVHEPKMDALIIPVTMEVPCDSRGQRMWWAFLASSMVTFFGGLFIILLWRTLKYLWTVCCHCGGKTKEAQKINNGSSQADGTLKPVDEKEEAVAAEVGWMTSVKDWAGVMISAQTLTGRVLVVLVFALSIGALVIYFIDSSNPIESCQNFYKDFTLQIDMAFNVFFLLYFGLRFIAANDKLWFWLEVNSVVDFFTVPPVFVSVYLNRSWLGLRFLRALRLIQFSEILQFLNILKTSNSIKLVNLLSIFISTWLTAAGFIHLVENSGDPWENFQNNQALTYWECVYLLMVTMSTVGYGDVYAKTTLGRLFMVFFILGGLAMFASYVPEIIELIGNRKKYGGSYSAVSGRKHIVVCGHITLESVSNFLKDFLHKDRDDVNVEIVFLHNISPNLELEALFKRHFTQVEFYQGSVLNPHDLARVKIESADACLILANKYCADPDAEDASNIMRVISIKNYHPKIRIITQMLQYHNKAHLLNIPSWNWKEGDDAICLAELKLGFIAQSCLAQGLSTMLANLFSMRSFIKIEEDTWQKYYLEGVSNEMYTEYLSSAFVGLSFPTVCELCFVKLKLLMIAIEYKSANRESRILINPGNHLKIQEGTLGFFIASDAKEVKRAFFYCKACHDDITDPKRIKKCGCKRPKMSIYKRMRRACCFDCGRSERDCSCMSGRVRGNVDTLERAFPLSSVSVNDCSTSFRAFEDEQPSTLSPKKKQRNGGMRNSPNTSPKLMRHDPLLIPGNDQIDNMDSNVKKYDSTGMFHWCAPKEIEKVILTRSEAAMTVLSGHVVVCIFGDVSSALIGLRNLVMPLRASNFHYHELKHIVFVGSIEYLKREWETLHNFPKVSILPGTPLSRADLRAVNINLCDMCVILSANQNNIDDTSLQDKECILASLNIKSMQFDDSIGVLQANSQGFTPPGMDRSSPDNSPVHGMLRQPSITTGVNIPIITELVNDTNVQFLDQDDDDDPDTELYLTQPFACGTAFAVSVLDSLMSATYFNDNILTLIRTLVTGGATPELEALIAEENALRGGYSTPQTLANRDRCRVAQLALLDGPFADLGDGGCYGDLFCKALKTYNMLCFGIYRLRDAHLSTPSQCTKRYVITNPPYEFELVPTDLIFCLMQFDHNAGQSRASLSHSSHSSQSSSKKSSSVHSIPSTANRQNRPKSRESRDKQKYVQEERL
compound,measurement,setting,value
"CC(C)[C@@H]1NC(=O)CNC(=O)[C@H](CCCNC(=N)N)NC(=O)[C@H](C)NC(=O)[C@@H](N)CSSC[C@@H](C(=O)O)NC(=O)[C@H](C(C)C)NC(=O)[C@H](CCCNC(=N)N)NC(=O)[C@H](Cc2ccc(O)cc2)NC1=O [LS1, CARGVYRVC] (H-CARGVYRVC-OH; disulfide 1-9; N-terminus and C-terminus assumed)",crossing of the blood-brain barrier,[1],able to cross the blood-brain barrier
"CC(C)C[C@@H]1NC(=O)CNC(=O)[C@H](CCCNC(=N)N)NC(=O)[C@H](CCCNC(=N)N)NC(=O)[C@@H](N)CSSC[C@@H](C(=O)O)NC(=O)[C@H](C(C)C)NC(=O)[C@H](CCC(N)=O)NC(=O)[C@H](C(C)C)NC1=O [LS3, CRRGLVQVC] (H-CRRGLVQVC-OH; disulfide 1-9; N-terminus and C-terminus assumed)",anti-BK channel activity in smooth muscle,[2],does not show typical anti-BK channel activity in smooth muscle
same,crossing of the blood-brain barrier,[1],can cross the blood-brain barrier
same,IC50,[3]; suppression of channel openings,low hundreds
CC(C)(O)[C@H]1O[C@H]2CC[C@@]3(C)[C@@](O)(CC[C@H]4Cc5c([nH]c6ccccc56)[C@@]43C)C2=CC1=O [paxilline],reduction in sound driven activity,[4],87%
CAVGRLAVC (pskan10/LS10 peptide),change in probability of opening (Po),[5],little change in the probability of opening
same,open dwell times / mean open times,"[3]; 500 nM peptide, single channels, intracellular calcium 750 nM, each holding voltage",shortens open dwell times
same,closed dwell times,"[3]; 500 nM peptide, three-component exponential fits, intracellular calcium 750 nM",Half of the recordings showed a lengthening in closed times
same,mean open times,"[3]; 500 nM, 60 mV",reduce mean open times
same,change in probability of opening (Po),"[3]; 500 nM, 100 mV, intracellular calcium 750 nM",little change in the probability of opening
same,change in probability of opening (Po),[6]; 500 nM,significant reduction in the probability of opening
same,potentiation of the probability of opening (Po) by ethanol,"[6]; 50 mM ethanol, 500 nM peptide",blocked
"reduced form of LS3 (linear): the reduced form of LS3 (linear), without the disulfide bridge (CRRGLVQVC; cyclised or stapled)",post-peptide Po relative to the starting Po,"[3]; 500 nM, linear vs cyclic form",did not alter Po
